Kd data for one substance are collected here from article PMC6368601.

pKd: −log10 of the molar value.

The test has as its target taxol-stabilized microtubules polymerized from bovine brain tubulin dimers (bovine) (UniProt Q6B856). Kind of test: co-sedimentation; 100 nM ISB (WT, MTBM or Δ20) with various concentrations of taxol-stabilized microtubules; BRB80, 1 mM DTT, 50 mM NaCl, 20 uM paclitaxel; 15 min at room temperature; 50% glycerol cushion, 279,000 x g; blot with anti-Borealin; apparent Kd from a one-site specific binding fit of three experiments.

Turning to “ISB^MTBM: INCENP^1-58-Survivin-Borealin(R17E, R19E, K20E) complex (from UniProt Q9NQS7 1-58; O15392 1-142; Q53HL2 1-280)”, the pKd is 5.38.

The pKd is the negative decadic logarithm of the Kd, by convention in mol/L.
